Measured values: paper PMC9307980, “High-Affinity Single-Domain Antibodies for Analyzing Human Apo- and Holo-Transferrin” (Acta Naturae, 2022)

Columns and labels:
holo-Transferrin human = target: T1, holo-Transferrin human (Homo sapiens, UniProt P02787); assay: ITC; in solution, PBS pH 7.4, MicroCal PEAQ-ITC; fitting model: sequential binding sites, number of sites 2; settings: both partners purified
T1 construct: human transferrin (serotransferrin), iron-saturated form, commercial preparation; same polypeptide as apo-Tf; also called holo-Tf; source: bought: Sigma-Aldrich
T1 sequence (P02787 20-698): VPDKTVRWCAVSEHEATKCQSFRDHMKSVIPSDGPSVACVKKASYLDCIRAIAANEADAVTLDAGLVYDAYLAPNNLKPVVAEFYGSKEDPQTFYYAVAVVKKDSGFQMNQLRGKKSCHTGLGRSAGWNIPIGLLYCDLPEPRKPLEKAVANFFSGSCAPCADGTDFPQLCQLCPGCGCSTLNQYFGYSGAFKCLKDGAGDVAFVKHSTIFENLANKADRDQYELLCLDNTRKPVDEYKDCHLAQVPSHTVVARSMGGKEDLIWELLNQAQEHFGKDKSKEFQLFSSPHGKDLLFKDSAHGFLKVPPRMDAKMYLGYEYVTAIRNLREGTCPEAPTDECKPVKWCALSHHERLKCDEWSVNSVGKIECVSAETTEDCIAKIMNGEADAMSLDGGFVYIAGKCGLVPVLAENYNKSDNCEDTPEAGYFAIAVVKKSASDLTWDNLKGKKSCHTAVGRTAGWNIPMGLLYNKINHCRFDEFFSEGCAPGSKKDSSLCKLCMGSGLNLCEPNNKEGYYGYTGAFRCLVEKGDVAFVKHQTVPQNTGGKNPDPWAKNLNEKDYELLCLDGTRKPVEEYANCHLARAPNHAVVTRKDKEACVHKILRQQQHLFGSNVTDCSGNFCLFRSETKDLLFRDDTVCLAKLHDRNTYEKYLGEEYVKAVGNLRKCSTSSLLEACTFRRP

apo-Transferrin human = target: T2, apo-Transferrin human (Homo sapiens, UniProt P02787); assay: as above; settings: both partners purified
T2 construct: human transferrin (serotransferrin), iron-free form, commercial preparation; Iron-free form of transferrin; same polypeptide as holo-Tf; also called apo-Tf; source: bought: Sigma-Aldrich
T2 sequence (P02787 20-698): as above

| KD1 (sequential binding sites, site 1) (holo-Transferrin human) [nM] | KD2 (sequential binding sites, site 2) (holo-Transferrin human) [nM] | KD1 (sequential binding sites, site 1) (apo-Transferrin human) [nM] | KD2 (sequential binding sites, site 2) (apo-Transferrin human) [nM] | Binder |
| --- | --- | --- | --- | --- |
| ~0.94 | ~0.75 | ~0.82 | ~14.5 | aTf2 nanobody (anti-human transferrin single-domain antibody) (VHH, variable domain of aTf2; long CDR3, cysteines in CDR1 and CDR3; HA-tag and His-tag follow it; source: generated in the bacterial periplasm, isolated and purified) VHH: QVQLVESGGGSVQAGGSLRLSCAVSGYMYSTNCMGWFRQAPGKEREGVAAIYTGGGSTYYPDSVKGRFTISQDNAKNTVYLQMNSLKPEDTAMYYCAAMRHCPYGGNWDHPVNYLGQGTQVTVSS |
| ~0.44 | ~1.44 | ~99.4 |  | aTf1 nanobody (anti-human transferrin single-domain antibody) (VHH, variable domain of aTf1; HA-tag and His-tag follow it; source: generated in the bacterial periplasm, isolated and purified) VHH: QVQLVESGGGLVQPGGSLTLSCAASGFTFSTYAMKWVRQAPGMGLEYVASINNGGTSTFYSASVKGRFTISRDNAKNTLYLQLNSLKTEDTAMYYCARINEYSTRGQGTQVTVSS |
